Assay results as given in article PMC2731815.
pKd: −log10 of the molar value.

Experiments:
[1] = target: thrombomodulin fragment 4-6 (TM4-6); assay: competition in a kinetic assay
[2] = target: Fl-FPR-inhibited thrombin (UniProt P00734); assay: other fluorescence titration

pKd [1] | pKd [2] | Substance
8.05 |  | Ser-195 to Ala (S195A) substitution mutant of thrombin (from UniProt P00734 44-622) (enzyme)
 | 8.46 | thrombomodulin fragment 4-6 (TM4-6) (domain or fragment)
